Assay [1] deals with His-tagged cytoplasmic fragment (CF) of the E. coli aspartate chemoreceptor, 4Q (E. coli). Briefly: co-sedimentation.
Assay [2] concerns the target all active complexes of the different constructs assembled with vesicles, PEG, or Ni(II). Nature of the assay: co-sedimentation.

Bounds are passed on as bounds.

B1: CheA (enzyme)
chain: MSMDISDFYQTFFDEADELLADMEQHLLVLQPEAPDAEQLNAIFRAAHSIKGGAGTFGFSVLQETTHLMENLLDEARRGEMQLNTDIINLFLETKDIMQEQLDAYKQSQEPDAASFDYICQALRQLALEAKGETPSAVTRLSVVAKSEPQDEQSRSQSPRRIILSRLKAGEVDLLEEELGHLTTLTDVVKGADSLSAILPGDIAEDDITAVLCFVIEADQITFETVEVSPKISTPPVLKLAAEQAPTGRVEREKTTRSNESTSIRVAVEKVDQLINLVGELVITQSMLAQRSSELDPVNHGDLITSMGQLQRNARDLQESVMSIRMMPMEYVFSRYPRLVRDLAGKLGKQVELTLVGSSTELDKSLIERIIDPLTHLVRNSLDHGIELPEKRLAAGKNSVGNLILSAEHQGGNICIEVTDDGAGLNRERILAKAASQGLTVSENMSDDEVAMLIFAPGFSTAEQVTDVSGRGVGMDVVKRNIQKMGGHVEIQSKQGTGTTIRILLPLTLAILDGMSVRVADEVFILPLNAVMESLQPREADLHPLAGGERVLEVRGEYLPIVELWKVFNVAGAKTEATQGIVVILQSGGRRYALLVDQLIGQHQVVVKNLESNYRKVPGISAATILGDGSVALIVDVSALQAINREQRMANTAA
For the molecule B1, in assay [1], the percent bound was under 15%; the sedimentation relative to the optimal NiCl2 sample turned out to be 50%; the sedimented (bound) concentration, maximum at 4 h turned out to be 5.8 µM.

B2: CheW (natural protein)
chain: MTGMTNVTKLASEPSGQEFLVFTLGDEEYGIDILKVQEIRGYDQVTRIANTPAFIKGVTNLRGVIVPIVDLRIKFSQVDVDYNDNTVVIVLNLGQRVVGIVVDGVSDVLSLTAEQIRPAPEFAVTLSTEYLTGLGALGDRMLILVNIEKLLNSEEMALLDSAASEVA
In turn, B2 showed a stoichiometry N (CheW per 6 CF) in assay [2] of 2.1 to 3. In assay [1], the percent bound was under 15%; the sedimentation relative to the optimal NiCl2 sample turned out to be 50%; the sedimented (bound) concentration, maximum at 4 h came to 13.6 µM.

The record behind these values is PMC5678893.
